Data: patent KR20220090395A (dated 2022)
Read-outs that look alike come from different tables or passages of the source.

What was measured:
SARS-CoV-1 RBD = SARS-CoV-1 RBD (SARS-CoV-1, UniProt P59594 306-527); test: binding measurement of Fig. 20; method not given
[1] = target: T1, SARS-CoV-2 RBD (Biotinylated SARS-CoV-2 RBD, Acrobio 시스템) (SARS-CoV-2, UniProt P0DTC2 319-537); test: BLI; IgG1 made in CHO cells
[2] = target: T1, SARS-CoV-2 RBD (Biotinylated SARS-CoV-2 …)

B1: D27LEY (IgG1 형태) (antibody, V domains shown)
VH: QVQLQQSGAEVKKPGSSVKVSCKASGGTFGNWSISWVRQAPGQGLEWMGGIAPGRGEATYAQKFQGRVTITTDESTSTAYMELSSLRSEDTAVYYCARETWYTSGGMDVWGQGTTVTVSS
VL: SYELTQPPSVSVAPGKTARITCGGNNIGRKSVHWYQQKPGQAPVLVVYDDSDRPSGIPERFSGSNSGNTATLTISRVEAGDEADYYCQVYDLWSSDYVFGTGTKVTVL
SARS-CoV-1 RBD
  Kd: < 1 pM

B2: D27LE (IgG1 형태) (antibody, V domains shown)
VH: QVQLQQSGAEVKKPGSSVKVSCKASGGTFGNWSISWVRQAPGQGLEWMGGIDPSRGEATYAQKFQGRVTITTDESTSTAYMELSSLRSEDTAVYYCARETWYTSGGMDVWGQGTTVTVSS
VL: SYELTQPPSVSVAPGKTARITCGGNNIGRKSVHWYQQKPGQAPVLVVYDDSDRPSGIPERFSGSNSGNTATLTISRVEAGDEADYYCQVYDLWSSDYVFGTGTKVTVL
[1]
  Kd: 7.1 nM

B3: D27 항체 (designed full-length antibody D27) (antibody, V domains shown)
VH: QVQLQQSGAEVKKPGSSVKVSCKASGGTFGNWSISWVRQAPGQGLEWMGGIDPSRGEATYAQKFQGRVTITTDESTSTAYMELSSLRSEDTAVYYCARETEQGGMDVWGQGTTVTVSS
VL: SYELTQPPSVSVAPGKTARITCGGNNIGRKSVHWYQQKPGQAPVLVVYDDSDRPSGIPERFSGSNSGNTATLTISRVEAGDEADYYCQVYDLFSDYVFGTGTKVEIK
[2]
  Kd: 175 nM
